Our source for the Bmax and EC50 values is patent US20240002497A1 (Merck Sharp & Dohme, published 2024).

Experiment [1] concerns the target T1, huNav1.7α + β1-β2-β3 (human Nav1.7α co-expressed with human Navβ1, Navβ2 and Navβ3 on cells) (human).
T1 construct: also called huNav1.7-beta1-beta2-beta3; CHO FlpIn huNav1.7α + β1-β2-β3
The experiment in a line: binding FACS, CHO FlpIn cells. Put shortly:
(§1)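 FLAG3-tagged ISVD, 30 min, 4° C, FACS buffer (PBS/10% FBS/NaN₃); 1×10^5 cells/well; detection murine anti-Flag; PI 1 μg/mL live gate; washes between steps.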

The target in experiment [2] is T2, rhNav1.7α + β1-β2-β3 (rhesus Nav1.7α co-expressed with Navβ1, Navβ2 and Navβ3 on cells) (rhesus monkey (α subunit); β subunits …).
T2 construct: also called rhNav1.7-beta1-beta2-beta3; CHO FlpIn rhNav1.7α + β1-β2-β3
Briefly: binding FACS, CHO FlpIn cells. Put shortly:
as §1

B1: F010301840 (VHH)
VHH: EVQLVESGGGVVQPGGSLRLSCAASGPVFNINRMAWYRQAPGKQRELVAYVTPTGDISYTDSVKGRFTISRDGSKRTWSLQMNSLRPEDTALYYCRALLQPDSYSNTRTYWGQGTLVTVSS
notes: also called F0103387G04(R76_V78insT)(L11V, A12V, K33R, R39Q, S50Y, S56D, T83R, V89L, N93R)
In the case of B1, in experiment [1], the Bmax came out at 100% and the half-maximal effective concentration (EC50) came to 47 nM. Further, in experiment [2], the Bmax is 50% and the EC50 turned out to be 48 nM.

B2: F010302317 (VHH)
VHH: EVQLVESGGGVVQPGGSLRLSCAASGPVFNINRMAWYRQAPGKQRELVAYVTPTGDISYADSVKGRFTISRDRSKRVYLQMNSLRPEDTALYYCRALLQPRSYSITRTYWGQGTLVTVSS
notes: also called F0103387G04(L11V, A12V, K33R, R39Q, S50Y, S56D, T60A, G73R, W78V, S79Y, T83R, V89L, N93R, D99R, N100cI)-FLAG3-HIS6
In the case of B2, in experiment [1], the Bmax is 91% and the EC50 stood at 6.8 nM. Moreover, in experiment [2], the Bmax was determined as 13% and the concentration for a half-maximal effect (EC50) worked out at 19 nM.

B3: F010301865 (VHH)
VHH: EVQLVESGGGVVQPGGSLRLSCAASGPVFNINRMAWYRQAPGKQRELVAYVTPTGDISYADSVKGRFTISRDGSKRVYLQMNSLRPEDTALYYCRALLQPDSYSNTRTYWGQGTLVTVSA
notes: also called F0103387G04(L11V, A12V, K33R, R39Q, S50Y, S56D, T60A, W78V, S79Y, T83R, V89L, N93R)
For the molecule B3, in experiment [1], the Bmax was 100% and the EC50 was determined as 20 nM. Further, in experiment [2], the Bmax worked out at 100% and the 50% effective concentration (EC50) is 11 nM.

B4: F010302371 (VHH)
VHH: EVQLVESGGGVVQPGGSLRLSCAASGPVFNINRMAWYRQAPGKQRELVAYVTPTGDISYADSVKGRFTISRDRSKRVYLQMNSLRPEDTALYYCRALLQPNVYSITRTYWGQGTLVTVSS
notes: also called F0103387G04(L11V, A12V, K33R, R39Q, S50Y, S56D, T60A, G73R, W78V, S79Y, T83R, V89L, N93R, D99N, S100V, N100cI)
In the case of B4, in experiment [1], the Bmax was 100% and the 50% effective concentration (EC50) amounted to 9.4 nM. Besides, in experiment [2], the Bmax was 100% and the EC50 was found to be 10 nM.

B5: F010302330 (VHH)
VHH: EVQLVESGGGVVQPGGSLRLSCAASGPVFNINRMAWYRQAPGKQRELVAYVTPTGDISYADSVKGRFTISRDASKRVYLQMNSLRPEDTALYYCRALLQPDRYSNTRTYWGQGTLVTVSS
notes: also called F0103387G04(L11V, A12V, K33R, R39Q, S50Y, S56D, T60A, G73A, W78V, S79Y, T83R, V89L, N93R, S100R)
Turning to B5, in experiment [1], the Bmax came to 93% and the EC50 was determined as 10 nM. In addition, in experiment [2], the Bmax is 23% and the concentration giving a half-maximal response (EC50) is 200 nM.

B6: F010302320 (VHH)
VHH: EVQLVESGGGVVQPGGSLRLSCAASGPVFNINRMAWYRQAPGKQRELVAYVTPTGDISYADSVKGRFTISRDASKRVYLQMNSLRPEDTALYYCRALLQPDSYSNTRTYWGQGTLVTVSS
notes: also called F0103387G04(L11V, A12V, K33R, R39Q, S50Y, S56D, T60A, G73A, W78V, S79Y, T83R, V89L, N93R)
With B6, in experiment [1], the Bmax was 99% and the concentration giving a half-maximal response (EC50) was 30 nM. For the same molecule, in experiment [2], the Bmax was 100% and the EC50 was determined as 21 nM.

B7: F010302385 (VHH)
VHH: EVQLVESGGGVVQPGGSLRLSCAASGPVFNINRMAWYRQAPGKQRELVAYVTPTGDISYADSVKGRFTISRQGSKRVYLQMNSLRPEDTALYYCRALLQPSSYSGTRTYWGQGTLVTVSS
notes: also called F0103387G04(L11V, A12V, K33R, R39Q, S50Y, S56D, T60A, D72Q, W78V, S79Y, T83R, V89L, N93R, D99S, N100cG)
As for B7, in experiment [1], the Bmax came out at 100% and the EC50 was 7.9 nM. In experiment [2], the Bmax was determined as 100% and the EC50 amounted to 5 nM.

B8: F010302384 (VHH)
VHH: EVQLVESGGGVVQPGGSLRLSCAASGPVFNINRMAWYRQAPGKQRELVAYVTPTGDISYADSVKGRFTISRGGSKRVYLQMNSLRPEDTALYYCRALLQPSSYSITRTYWGQGTLVTVSS
notes: also called F0103387G04(L11V, A12V, K33R, R39Q, S50Y, S56D, T60A, D72G, W78V, S79Y, T83R, V89L, N93R, D99S, N100cI)
As to B8, in experiment [1], the Bmax was determined as 100% and the EC50 is 6.2 nM. In experiment [2], the Bmax stood at 100% and the EC50 is 4.3 nM.

B9: F010302370 (VHH)
VHH: EVQLVESGGGVVQPGGSLRLSCAASGPVFNINRMAWYRQAPGKQRELVAYVTPTGDISYADSVKGRFTISRDRSKRVYLQMNSLRPEDTALYYCRALLQPSSYSITRTYWGQGTLVTVSS
notes: also called F0103387G04(L11V, A12V, K33R, R39Q, S50Y, S56D, T60A, G73R, W78V, S79Y, T83R, V89L, N93R, D99S, N100cI)
Take B9: the Bmax in experiment [1] and in experiment [2] was 100% in each case. Moreover, the EC50 in experiment [1] was 9 nM; in experiment [2] it was 7.3 nM.

B10: F010302329 (VHH)
VHH: EVQLVESGGGVVQPGGSLRLSCAASGPVFNINRMAWYRQAPGKQRELVAYVTPTGDISYADSVKGRFTISRDGSKRVYLQMNSLRPEDTALYYCRALLQPDRYSNTRTYWGQGTLVTVSS
notes: also called F0103387G04(L11V, A12V, K33R, R39Q, S50Y, S56D, T60A, W78V, S79Y, T83R, V89L, N93R, S100R)
In the case of B10, the Bmax was 94% in experiment [1] and 44% in experiment [2]. For the same molecule, the EC50 in experiment [1] came out at 7.6 nM; in experiment [2] it was 19 nM.

B11: F010302325 (VHH)
VHH: EVQLVESGGGVVQPGGSLRLSCAASGPVFNINRMAWYRQAPGKQRELVAYVTPTGDISYADSVKGRFTISRDRSKRVYLQMNSLRPEDTALYYCRALLQPDSYSNTRTYWGQGTLVTVSS
notes: also called F0103387G04(L11V, A12V, K33R, R39Q, S50Y, S56D, T60A, G73R, W78V, S79Y, T83R, V89L, N93R)
Regarding B11, the Bmax in experiment [1] came out at 96%; in experiment [2], 99%. The EC50 in experiment [1] came to 13 nM; in experiment [2], 8.7 nM.

B12: F010302331 (VHH)
VHH: EVQLVESGGGVVQPGGSLRLSCAASGPVFNINRMAWYRQAPGKQRELVAYVTPTGDISYADSVKGRFTISRDRSKRVYLQMNSLRPEDTALYYCRALLQPDRYSNTRTYWGQGTLVTVSS
notes: also called F0103387G04(L11V, A12V, K33R, R39Q, S50Y, S56D, T60A, G73R, W78V, S79Y, T83R, V89L, N93R, S100R)
With B12, in experiment [1], the Bmax turned out to be 90% and the EC50 is 6 nM. In experiment [2], the Bmax stood at 38% and the EC50 was found to be 24 nM.

B13: F010302386 (VHH)
VHH: EVQLVESGGGVVQPGGSLRLSCAASGPVFNINRMAWYRQAPGKQRELVAYVTPTGDISYADSVKGRFTISRQGSKRVYLQMNSLRPEDTALYYCRALLQPSSYSITRTYWGQGTLVTVSS
notes: also called F0103387G04(L11V, A12V, K33R, R39Q, S50Y, S56D, T60A, D72Q, W78V, S79Y, T83R, V89L, N93R, D99S, N100cI)
B13: in experiment [1], the Bmax came out at 100% and the EC50 was 7.3 nM. Besides, in experiment [2], the Bmax is 100% and the EC50 worked out at 4.9 nM.

B14: F010302327 (VHH)
VHH: EVQLVESGGGVVQPGGSLRLSCAASGPVFNINRMAWYRQAPGKQRELVAYVTPTGDISYADSVKGRFTISRDASKRVYLQMNSLRPEDTALYYCRALLQPRSYSNTRTYWGQGTLVTVSS
notes: also called F0103387G04(L11V, A12V, K33R, R39Q, S50Y, S56D, T60A, G73A, W78V, S79Y, T83R, V89L, N93R, D99R)
With B14, the Bmax in experiment [1] was found to be 87%; in experiment [2], 7%. The EC50 in experiment [1] is 7 nM; in experiment [2], 93 nM.

B15: F010302326 (VHH)
VHH: EVQLVESGGGVVQPGGSLRLSCAASGPVFNINRMAWYRQAPGKQRELVAYVTPTGDISYADSVKGRFTISRDGSKRVYLQMNSLRPEDTALYYCRALLQPRSYSNTRTYWGQGTLVTVSS
notes: also called F0103387G04(L11V, A12V, K33R, R39Q, S50Y, S56D, T60A, W78V, S79Y, T83R, V89L, N93R, D99R)
For B15, in experiment [1], the Bmax was 89% and the EC50 was determined as 6.2 nM. For the same molecule, in experiment [2], the Bmax worked out at 32% and the EC50 came to 18 nM.

B16: F010302372 (VHH)
VHH: EVQLVESGGGVVQPGGSLRLSCAASGPVFNINRMAWYRQAPGKQRELVAYVTPTGDISYADSVKGRFTISRDRSKRVYLQMNSLRPEDTALYYCRALLQPDVYSITRTYWGQGTLVTVSS
notes: also called F0103387G04(L11V, A12V, K33R, R39Q, S50Y, S56D, T60A, G73R, W78V, S79Y, T83R, V89L, N93R, S100V, N100cI)
For the molecule B16, in experiment [1], the Bmax came to 100% and the EC50 stood at 17 nM. In experiment [2], the Bmax is 100% and the EC50 came out at 20 nM.
